From the domain aggregation screens of Martell et al. (2025)

Assay: soluble fraction after stress (log2 fold change); higher = more stays soluble; pooled small domains, quantitative proteomics
Details: stress: 75 degC
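Also: 20 min heating vs room temperature control held 20 min.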

Row | Sequence | soluble fraction (log2)
1 | HMEVTENQEKHAYQEAMDQALRFLAPRFLSRAELTRKLLQKEHDRDVIDAVIDRLEELDYVDDAR | -0.013
2 | HMEVTLGLGSMVRLLGEPYLGSTGRVVELPDQAERFASGLTAKVAVVERHDGELIRVPVTNLLLME | -1.25
3 | HMEVTLTLKSFGTAKVAVIKAIQSITGLGLMDAKKLVDAAPSVIKEKISPSEAEQYKKTLVDAGAEVEI | -2.31
4 | HMEVVVPDFEKIYIRDLDKFVEGHNVRYEIVDSIYNLEKDKGTVVDQDPEPGSKVKHGRVIYLTVNAML | -0.231
5 | HMEVVVPEDLDAALQQASRAQSFFSSLSYTHKKEYVAWINEAKRAETRAMRIQKTITMLESGQRGH | -2.35
6 | HMEWEVHSVTVTPELSGERLDVAATALLSQFSRALVQRWIDANELTLNERPVKAKSKVRVGDLIAVKAK | -1.06
7 | HMEWLENIKKLKKEKGLTNESLSEKSGISVGTLNKLLSGATTDPKLSTLRPLADALEVSLDELLAI | -0.0723
8 | HMEWTDIPTHKVPNVVGKSVEEAKKKLSKFTIEYSGTGEKVVAQSPDAGEKLEEGGTVRLLL | -0.136
9 | HMEYEETMSQIKHNLNLLPRQQRVIIEMAKFDELTPAEIAKQLGISVQTVRNQLSTGLKKLRQLL | 0.0391
10 | HMEYKKKIGELLIDGNKKLKAANIDTYILDTQLLLGKVLGKDKLYLITNKDEEVSNFKEREFYSLIEKRI | 0.0872
11 | HMEYMKQRLYDIIELFKRSFSPSFSEEEKKKLENVLQDDFLRKAYEQLSDEVFIEEKFREFDGY | -2.88
12 | HMEYPNEIARIFNQIPELNVSAVARTLGINKSLLSSYIYGMKKPSPERTEEIKSAIRKIGQNMLAV | -0.927
13 | HMEYQSLVLDFLEQGDFNAEKLKDYQRAFAKQNGMQTLPSKSQILQAYFQLVEEKKINKNSDFELLLRKR | -0.32
14 | HMEYSNLGEALRRLSEIDLQIILLKYSHGFSIKEISKILDIKEVNLYKRNKRALNKLKKILAEMEVLSN | -0.34
15 | HMEYYDDEELDRFRGVEADAYDEDAVNEFRDVLYTLQEIEVAGWLRSLQLRAINLPDELKDEAFLI | -1.48
16 | HMEYYEDEELDRFRGRNSDQYSDAEIEEFNEILTTLRSEEVAGWIRSLQLREIALPDELKDDVILLVG | -0.903
17 | HMEYYIMPVANLHKVVVDGKDMSNLISNNAIAVKANVIDEGQIQIKPGEIIITTPAGVSPEEAVRSP | ≥ 1.04
18 | HMFANQLLLTRFDLNYIKSDVLSRQIDVLGIPIKKLTIEANNKSIWLQGTSQSLSKVRELIGIIDIRENA | -3.38
19 | HMFAQDKKFITYKVKEGETVQSISKALSITPYDLLKLNPDIKDNVSQDDLLIIPNKQYDPLGDI | 0.378
20 | HMFDENVKLIENEYDVSIISRGSELKVMGDVENVDKAARALRSMLAMINKGESLTEQNVRYVLTLVNEGNE | -0.735

Row | Sequence | soluble fraction (log2)
21 | HMFDFLELGQAIQDAREKQRITREELAEELGISARHLQSVEKEGQYPSFRLFIQLVTMFHISVDQYI | -0.0535
22 | HMFDLATVKRVAEEAGMKFTIHPVELRAAHPNTAVLTLKSKAGRILVLKAASVGGGRIRVTEIDGVPAD | -0.335
23 | HMFDLDIEQIANDLKHGVMPNLYGLSLQDALYLLEAKGIRVKVAGSGSVVNQSIKTGAYVGSGSVLKLEL | -1.78
24 | HMFDLSQRQEQIIEIVRKHGPITGEKIADLLYVTRAALRPDLAILTMSGYLEAKPRVGYTYK | -1.64
25 | HMFDMLGDQIKKYRKEKKMSQEELAIPLNVVRQTVSKWENNLSVPDAELLIRLAEVLEISVAELLGT | -0.378
26 | HMFDTVFIVRKTSDKPLDGLRTYLNSIGDSLVIGEDDEAFKVHVHTNHPGKVLEEAITYGALQTVKIENMR | -1.07
27 | HMFDTVTIGRKIAELRKAHNMTQFELADALGISFQAVSNWERGASMPDISKLPELAEIFGVTIDEVLGK | -1.5
28 | HMFEATGKITGTEVSFRRKPTTDSERILFFDINTEFRVIGINNGWYKGVYQGKTGYVRSDFVEIVGG | -2.05
29 | HMFEEPYLATYPVLIDPKLAFNVLDTMLEGLEVKMDQDEETGAISVLAPASIHTKITEYLDALSKQ | -0.0924
30 | HMFEERKKDWNLTGLLDDVIRRYIHQLTNDELNEINLEKSSGMPDEEIKNGIKLPLAVMQQRRETWGS | -0.252
31 | HMFEQRLRQAMKELRLKQVQVAGLTGKSRGAISQYLSGDRVPPDGVQREMAIALGLEADYFSR | -0.85
32 | HMFERFIFTDEVYIRLKKSGLPQTTLRPLLEIHGKSFDHNEINIILSGLIPNQDFERYAQIIKSHSRF | -4.24
33 | HMFEYDEIMEQSVPKIAWGSLLTIMKKASSHKEMLWYINETYKNGWSRSMVLNQIAMASYERSLIE | -0.732
34 | HMFFDKIIVDFLADGSRIDKYISTLYPDISRTHIQRLIAEQFILVNDSVVKSNYKLSTNDVVLIHIPEA | -3.01
35 | HMFFMTMGEKIQLLRKKQNWSQETLAEKLSVSRQAVSLWERDESQPELDKLLKLAKIFSVTTDYLIDDSVT | -3.19
36 | HMFGGIEFGWSQLPDGRVEYIIQLDDQAIAALKNGRSLTSSLPPEVQNADRIRIQYGAGPVEKGLLLQ | -0.206
37 | HMFIEMDEPEKILHRILNEANGKLELDKIGYRAEWPIGKVLTVLMSLELKGVVQSHPGKVYSL | -0.371
38 | HMFIGFLHQLKEAGVPVSIREYLDFLSGLDKGITNLNTNSFYHFARASLVKDERHYDRFDRTFSEFFEGAL | -3
39 | HMFIQLSQEEKKVVEGLQQRSKTHLDALALEVGQNISKTAAMLMELEMKGVVRALPGKYYEL | -1.1
